Measurements taken from the DeepSol protein solubility set.

assay: soluble on expression in E. coli; label from the status in PepcDB or PDB records

Sequence | soluble on expression in E. coli
MGSDKIHHHHHHMVQTVYKNSDQTVFEDAKALFQLNKNILLKGPTGSGKTKLAETLSNVMKLPMHQVNCSVDLDTESLLGFKTIHTNEEGHQEIVFIDGPVIKAMKEGHILYIDEINMAKPETLPILNGVLDYRRQLTNPYTGEVIKAAPGFNVIAAINEGYVGTLPMNEALKNRFIVIEVDYIDGDILKTVIKEQSKLQDEQLIQHIVKFNEDLRTMTKQGQISEEAASIRALIDLSDLATVMPIERAVQRTIIDKLEDEREQQAILNAIELNF | not soluble
QDFAEIYARFSDERANEQANRCSQCGVPFCQVHCPVSNNIPDWLKLTSEGRLEEAYEVSQATNNFPEICGRICPQDRLCEGNCVIEQSTHGAVTIGSVEKYINDTAWDQGWVKPRTPSRELGLSVGVIGAGPAGLAAAEELRAKGYEVHVYDRYDRMGGLLVYGIPGFKLEKSVVERRVKLLADAGVIYHPNFEVGRDASLPELRRKHVAVLVATGVYKARDIKAPGSGLGNIVAALDYLTTSNKVSLGDTVEAYENGSLNAAGKHVVVLGGGDTAMDCVRTAIRQGATSVKCLYRRDRKNMPGSQREVAHAEEEGVEFIWQAAPEGFTGDTVVTGVRAVRIHLGVADATGRQTPQVIEGSEFTVQADLVIKALGFEPEDLPNAFDEPELKVTRWGTLLVDHRTKMTNMDGVFAAGDIVRGASLVVWAIRDGRDAAEGIHAYAKAKAEAPVAVAAE | soluble
MAHHHHHHMKRAAKGEVVFDEDIRRLCDKGVNNLPGWSLAAAEVKAAVRNSTKHFLDAAAEEARNPTTTSAPEKLEGCYKSVHNARRGHAVELPDGVERTKTGTGMGMHEGRPEQSWSYKKADDAIEKNDGVQQFGAAPPVLMVLTLDKGWPYSWNRIQDLPKDVFVNCEVDRVWQTVKGDVTAWFSPHGGTDFTPKQRVLIGTPGIGKSMAAGSYLLYQLLHCDAKKLQVVVHRFGGGDAYVSDKITRAVTKYSDEDMCISELRRLRGYGRNVYIIYDVAKEGTPPPRHFAPTSGWGMIVVSFPKVTNYDEWEKQLHAARIIMNCPDESDVRAMCIWKEYNGQVEEEADYWKKVKDRMDKVGPILRFIFDN | not soluble
MAKWLRDYLSFGGRRPPPQPPTPDYTESDILRAYRAQKNLDFEDPYEDAESRLEPDPAGPGDSKNPGDAKYGSPKHRLIKVEAADMARAKALLGGPGEELEADTEYLDPFDAQPHPAPPDDGYMEPYDAQWVMSELPGRGVQLYDTPYEEQDPETADGPPSGQKPRQSRMPQEDERPADEYDQPWEWKKDHISRAFAVQFDSPEWERTPGSAKELRRPPPRSPQPAERVDPALPLEKQPWFHGPLNRADAESLLSLCKEGSYLVRLSETNPQDCSLSLRSSQGFLHLKFARTRENQVVLGQHSGPFPSVPELVLHYSSRPLPVQGAEHLALLYPVVTQTP | soluble
GRFSDELVEACAEMVRQRWNPHPEPTWVCCVPSLRHLDLVPDFARRLAAKLGLPFIDAIEKVVDNPPQKMQQNRFHQCQNLDGAFVITPPLMPGPALLVDDIVDSAWTLTVLTALLRQAGCPTVYPLALASTSVK | not soluble
MAPKDQAADMDYDQTKKMVVDILKTDDGKKAIKELLNDDAMNEALVIDQDAIKGTIEKTLTSKKGEEFWKNIFEDTDFAEGFAKTLQTEHEKVIKKLMKDPDYQKMLMSVMQDPGMDKKYSQLAKSQEFRSYLEEVINETLSSPLYKKQFEDELKKAAKDTAKESELEHHHHHH | soluble
MGSDKIHHHHHHMANNNGKDKSLESWIWDAACSIRGAKDAPKYKDYILPLIFTKRLCDVFDDELNRIAAEVGSRKKAFQLAKADHKLVRFYLPLVPDDPEQPVWSVIRKLSDWIGEGVTSHMRAIARENPLLQGIIDRVDFNATTHGQRDLDDDRLSNLIEAISTKRLGLEDVEADIIGKSYEYLIRKFAEGGGQSAGEFYTPPEVGTIMSRVLQPEPGMEIYDPTCGSGGLLVKCEIAMEETAKGKKRTVAPLKLFGQEFTPETWAMANMNMIIHDMEGQIEIGDTFKNPKFRSKGKLRTFDRVVANPMWNQDWFTEADYDNDELDRFPAGAGFPGKSSADWGWVQHIHASMNATGRAAVVLDTGAASRGSGNAGTNKEKTVRQWFVDHDLIESVLYLPENLFYNTTAPGIVLFLNKAKAHERKGKVFLVNASQVFEKGDPKNFIPEAGIQRIADTLIGWVEAEKLSRIVDHAELKKNDYNISPSRYIHTSDAETYRPIAEIVEELEAIEAEAKETDQALDRILKQLGIGA | not soluble
MELLLLSNSTLPGKAWLEHALPLIANQLNGRRSAVFIPFAGVTQTWDEYTDKTAEVLAPLGVNVTGIHRVADPLAAIEKAEIIIVGGGNTFQLLKESRERGLLAPMADRVKRGALYIGWSAGANLACPTIRTTNDMPIVDPNGFDALDLFPLQINPHFTNALPEGHKGETREQRIRELLVVAPELTVIGLPEGNWIQVSNGQAVLGGPNTTWVFKAGEEAVALEAGHRF | soluble
MVNKRTVTELSLFAGLIVSMHVAYYTIQNNPSLVAPHQRQELFYVRWLKEKIPALRPYGVTDDKTPKADQ | not soluble
MKLERVTVKNFRSHSDTVVEFKEGINLIIGQNGSGKSSLLDAILVGLYWPLRIKDIKKDEFTKVGARDTYIDLIFEKDGTKYRITRRFLKGYSSGEIHAMKRLVGNEWKHVTEPSSKAISAFMEKLIPYNIFLNAIYIRQGQIDAILESDEAREKVVREVLNLDKFETAYKKLSELKKTINNRIKEYRDILARTE | soluble
MGGSHHHHHHGMASGKSDFLTPKAIANRIKSKGLQKLRWYCQMCQKQCRDENGFKCHCMSESHQRQLLLASENPQQFMDYFSEEFRNDFLELLRRRFGTKRVHNNIVYNEYISHREHIHMNATQWETLTDFTKWLGREGLCKVDETPKGWYIQYIDRDPETIRRQLELEKKKKQDLDDEEKTAKFIEEQVRRGLEGKEQEVPTFTELSRENDEEKVTFNLSKGACSSSGATSSKSSTLGPSALKTIGSSASVKRKESSQSSTQSKEKKKKKSALDEIMEIEEEKKRTARTDYWLQPEIIVKIITKKLGEKYHKKKAIVKEVIDKYTAVVKMIDSGDKLKLDQTHLETVIPAPGKRILVLNGGYRGNEGTLESINEKTFSATIVIETGPLKGRRVEGIQYEDISKLA | not soluble
IDGIFIMDAEGHYLDVNPAICSAIGYTRDEFLALDWGVLSRGVDSGWAAASLARIVGGEPLREERTVWTRNGDQLTVELSAHLLPD | not soluble
MYFRLESQFSINGSMIVLINGAEPSLESHVAFYETGTFTVEQGEMRMIELKYQSTMENIHAFLDVVTGAIDIHLSPCKSQETDIFYSNLAAGSHRIDIDLKTMMDNVSVLLKKNVSKLHKAKR | not soluble
GPLGSPEFPGAFRTQKPSLNTVNVVGSSMGSGGVFTIDGKIKCVTAAHVLTGNSARVSGVGFNQMLDFDVKGDFAIADCPNWQGVAPKAQFCEDGWTGRAYWLTSSGVEPGVIGNGFAFCFTACGDAGSPVITEAGELVGVHTGSNKQGGGIVTRPSGQFCNVKPIKLSELSEFFAGPKVPLGDVKIGSHIIKDTCEVPSDLCALLAAKPELE | soluble
MGKGDSIIVAVRVRPFNDREKTRNCKLVIEMPDEETTVIRDPKTNDEKRFTYDHSYWSHDGFSEKKNGYLEPTDPHYADQRRVFEDLGRGVLANAWAGYNCSLFAYGQTGSGKSYSIVGFKNNKGIVPIVCEELFKQIADNKKKNMQFEVFVSMMEIYCEKVRDLLSSTPPPKGGLKVREHPKNGFYVENLTTVPVNSFKEIEAKIEEGTKSRTIAATQMNATSSRAHTIVKITFNQKSSKQAGGTSMKKSEINLVDLAGSERQSAAGTEGDRLKEGIVINQSLTTLGRVIKALHDSQKAKSGKKTQIPYRDSVLTCLLKNALGGNSKTIMIAAISPADINFEETLSTLRFADRAKSIKTNAVVNENQTERALRELREENLRLQSQIQGGTAGDASNEEIEKLRRQLAENQKEMEEMEKSWQQKIAEEAAKHASGASEKVEMEAKKKKMCHLWNLNEDPALTNVIVHFIPVGESVVGNKPTSSGNFIQMSGLSILPQHVTLKNDGNNQIHLSPCSEDLDIFINGKPVHGETQLQQNDRVFFGGNHLYVFNNPTKKGIRTDITYENAQAEIAQNHAAALGNRGLGGGSKRDLILEEELMSTLPLVQRANAMATELGRNVKFEIVLVSPEMRGLTSGLTEIWVKVHNISEDTYFLWEKSRFMNRYYGMQEMYEAKQDGSEDWNMPKERDPFYEPPDSPVFIASSVVFLQSLAYLIDVEEQFPIVDLSGQEIGLLTVGLSPCSTTGKELRGEYVEDPDQLIGKNIAFKVKVISAVGLPRRILKSNCKYRFFGSKKMTTTATVSGNTPAYGHEETFQFKPVTKEVADYLANSNLYITFWGTQRPRGASSRKNSISTIGSNEAREGPNKAKRVERLVHQAKTSENRNISVKALETVLKGVDDNENRKTRKQSMKKAGSTTIKSRSGSKKPKAK | not soluble
MGSDKIHHHHHHMSAVIGYRHGKAGERGIILCARQFQNSLNESSLEEIKRAIESYPFLQDYYEIGDKYIKSKDGRIVYVFAGLDRNIASIKSMGRVFLCWVDEAEPVTETAWQTLIPTLREEGNDWNAELWVTWNPCRENAPVEKRFRNVNNPHIKGAEITWRDNPQFPEKLNRDRKADLEQRPEHYNHIWEGEYLQTVEGAYYQKALLEASREGRITTVPRDPLMQIRIFWDIGGTGAKADATALWVAQFVGREIRVLDYYEAQGQPLSEHVGWVFQRGYDKALMVLPHDGATKDRVYNVSFESALQQAGFQTKVIPNQGVGAVKMRIEAVRRLFPAIWFNRETTHAGRKALAWYHEKRDEQRNIGLGAEHDWASHGADAFGLMCVAYEQPNMRPKKNTYRSSHHSQTSWMAF | not soluble
MGSDKIHHHHHHMSPKTALNLFSLLWQNYSARVPYARTYEQMITAAGGTVANDHIAFRSLRLLVDSPRGKVNLGINYLSQIAEALGYEPAGEYNFPQTHLYARHYRHPQQIEFDLPKLFISELIVDELPDNIIQLITQTVSTVADEFTSPLTYFSPAEGNDGVIAQQLQKFFTRPWMTPRRSVVEAVNQVTQYGAWVLLHGYAVNHFTGYVNRHQTPEYADIDDTARGLANLGVPMKAEIEGDVTWGLRQTATQAVKEMVTVIDDISGQEVEIPWTYAYYEIAQRYPLQVEPGKEKLFDGFLGNNAQQLFEMTRLVECDAAKIGK | not soluble
DPVFLDIFKSDKEDYEQRLRGAIREELNAFWQAKQPMIGLYLGEAMVGVACINSPDETLASDRFWHWRLKMLLNAGYFSTKQMMQKEHTVLAAVPLKIFHFLSFIAVHPLHQQHGFGHYLMAAVNTVLDEHPDSEGVAVYATSGKFKEFFKQVDYHTVKEVTVGNV | not soluble
MSLYKIGELSKIVNLSIETIRYYEKIRLIPKPERFNNRYKKYSEMYIYRLKIIIKAKNYGFTLHEISNFLSEVSTSSIEDIDLSSTIMNKVQQIEKECERLNYKKNQLLKFEEEINDLQCPVLNRIINEKNEGHHHHHH | soluble
MKIAITITVLMLSICCSSASSDICPGFLQVLEALLLGSESNYEAALKPFNPASDLQNAGTQLKRLVDTLPQETRINIVKLTEKILTSPLCEQDLRV | soluble
MPKTQGLSPESLISQFARCEEGWCVQYHDVILASAFQPVISITHKRVVGYEALVRATDANNAQISPDTLFARAQARGETILLDRLTRCLHVANFSEQDTGSCWLFLNVLPQMFDAGIAPSVFIEALCAHFALPPTRVVLEVIEQPSRNEPALARTLDMIQHGDFLIAVDDFGTGFSNFDRIWQIKPDIVKLDRSILERSLAASDAHRIVHHLVTMLHHAGTMVLAEGVENEDALQILMDADVDFVQGFCFGLPDPSLERARRAAPARIETAWQRFAERVKERRGDVVHPGFDTIERIVLAGAADYAQARDLRGAAQRLLTNPIVRRVFVAEANGEQVEPSVTNETPDTPSATTRRLAPLLPELHCNWSRRAYFQRAVAAPGRVALMGPHFSLTDGRDCYTAAVAIHLGTTLKVFCVDFDFSSYGDGQ | not soluble
